The test system of this series is recombinant overlapping peptides (ROP) fusion protein composed of 20 overlapping peptides covering HIV Nef (Lai) interspersed with Factor Xa sites (IEGR).

For “protease Factor Xa (New England Biolabs)”, the “protease digestion, SDS page and mass spectrometry” value is “the ROP protein was cut by Factor Xa into overlapping peptides (ROP peptides) as shown in the mass spectrometry”.
